Biological target: T1, SV40 large T-antigen (SV40, UniProt P03070 87-708)
T1 construct: Control partner in the yeast-two-hybrid assay; fusion construct not described
Assay: targeted yeast-two-hybrid, negative control

T1 sequence (P03070 87-708 limits assumed): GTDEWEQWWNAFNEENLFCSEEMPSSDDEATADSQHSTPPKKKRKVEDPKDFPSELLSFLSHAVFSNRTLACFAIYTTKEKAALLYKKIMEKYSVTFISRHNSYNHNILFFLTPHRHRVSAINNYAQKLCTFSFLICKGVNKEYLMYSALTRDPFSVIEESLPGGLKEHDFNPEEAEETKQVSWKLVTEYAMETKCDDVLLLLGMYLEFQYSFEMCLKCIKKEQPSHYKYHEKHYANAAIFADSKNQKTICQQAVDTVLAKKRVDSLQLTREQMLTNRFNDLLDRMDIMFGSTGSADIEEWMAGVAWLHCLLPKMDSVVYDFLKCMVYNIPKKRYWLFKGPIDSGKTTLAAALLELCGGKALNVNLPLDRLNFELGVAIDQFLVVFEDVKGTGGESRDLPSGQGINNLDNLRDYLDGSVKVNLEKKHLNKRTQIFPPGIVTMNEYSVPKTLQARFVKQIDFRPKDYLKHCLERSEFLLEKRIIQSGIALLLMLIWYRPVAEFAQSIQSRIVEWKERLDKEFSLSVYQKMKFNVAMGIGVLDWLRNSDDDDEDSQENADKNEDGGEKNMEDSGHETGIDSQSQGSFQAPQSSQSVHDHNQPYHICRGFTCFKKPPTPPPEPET

B1: human Lamin C (other)
chain: SEEVVSREVSGIKAAYEAELGDARKTLDSVAKERARLQLELSKVREEFKELKARNTKKEGDLIAAQARLKDLEALLNSKEAALSTALSEKRTLEGELHDLRGQVAKLEAALGEAKKQLQDEMLRRVDAENRLQTMKEELDFQKNIYSEELRETKRRHETRLVEID
notes: Negative-control partner in the yeast-two-hybrid assay; fusion construct not described
- binding result: no binding

From US20060223099A1 (BAYLOR COLLEGE OF MEDICINE, published 2006)
